Measurements taken from article PMC9163089.

What was measured:
[1] = target: Cytosolic domain of YscV (YscVC, residues 356-704), purified alone (Yersinia enterocolitica); assay: SEC; analytical SEC of YscVC alone at 10, 25 and 100 µM initial concentration, Superdex 200 10/300GL, 20 mM Tris pH 8, 150 mM NaCl; monomer to nonamer
[2] = target: Cytosolic domain of YscV (YscVC, residues 356-704), co-expressed with YscX and YscY (Yersinia enterocolitica); assay: SEC
[3] = target: Cytosolic domain of YscV (YscVC, residues 356-704), co-expressed with YscX and YscY (Yersinia enterocolitica); assay: crystal structure

| Substance | stoichiometry N [1] | stoichiometry N [2] | stoichiometry N [3] |
| --- | --- | --- | --- |
| Cytosolic domain of YscV (YscVC, residues 356-704), purified alone (domain or fragment) | 9 | – | – |
| Cytosolic domain of YscV (YscVC, residues 356-704), co-expressed with YscX and YscY (domain or fragment) | – | 9 | 9 |
